Measured values from doi:10.1101/2022.03.05.483071.

Biological target: KIF5A ΔExon27-GFP (human) (UniProt Q12840)
Assay: single-molecule TIRF microscopy, fluorescence intensity of moving spots

Substance: KIF5A ΔExon27-GFP (from UniProt Q12840 1-998) (natural protein)
- percent of moving spots that are a single dimer: 25%
